Test results reported in article PMC9482650, “Quantitative fragmentomics allow affinity mapping of interactomes” (Nature Communications, 2022).

T1: ARHGAP21, Q5T5U3
T1 sequence (Q5T5U3 45-169, limits assumed, looked up): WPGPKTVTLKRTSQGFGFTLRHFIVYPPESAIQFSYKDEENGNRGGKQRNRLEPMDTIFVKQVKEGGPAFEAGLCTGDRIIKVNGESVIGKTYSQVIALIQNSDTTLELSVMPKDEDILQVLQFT

T2: DFNB31_1, Q9P202
T2 sequence (Q9P202 135-233, limits assumed, looked up): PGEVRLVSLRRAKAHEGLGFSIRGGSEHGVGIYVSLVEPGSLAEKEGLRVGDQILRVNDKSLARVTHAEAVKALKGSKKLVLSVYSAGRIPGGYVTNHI

T3: DLG3_1, Q92796
T3 sequence (Q92796 125-227, limits assumed, looked up): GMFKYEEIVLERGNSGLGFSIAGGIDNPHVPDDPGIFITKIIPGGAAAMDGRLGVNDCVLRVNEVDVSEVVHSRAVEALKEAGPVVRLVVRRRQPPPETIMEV

T4: DLG3_3, Q92796
T4 sequence (Q92796 374-475, limits assumed, looked up): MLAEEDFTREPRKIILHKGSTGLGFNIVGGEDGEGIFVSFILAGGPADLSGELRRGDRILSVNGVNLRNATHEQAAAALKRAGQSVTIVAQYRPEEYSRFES

T5: LIN7B, Q9HAP6
T5 sequence (Q9HAP6 88-185, limits assumed, looked up): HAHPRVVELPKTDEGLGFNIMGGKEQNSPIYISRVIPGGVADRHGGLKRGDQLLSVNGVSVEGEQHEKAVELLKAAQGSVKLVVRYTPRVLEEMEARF

T6: MPDZ_12, O75970
T6 sequence (O75970 1857-1958, limits assumed, looked up): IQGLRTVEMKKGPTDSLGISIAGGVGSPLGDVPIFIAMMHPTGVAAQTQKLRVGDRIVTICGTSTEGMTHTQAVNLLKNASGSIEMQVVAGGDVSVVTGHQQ

T7: MPP7, Q5T2T1
T7 sequence (Q5T2T1 134-230, limits assumed, looked up): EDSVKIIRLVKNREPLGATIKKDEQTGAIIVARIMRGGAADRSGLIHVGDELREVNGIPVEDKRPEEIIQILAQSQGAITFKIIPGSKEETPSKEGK

T8: PDZD7_3, Q9H5P4
T8 sequence (Q9H5P4 857-944, limits assumed, looked up): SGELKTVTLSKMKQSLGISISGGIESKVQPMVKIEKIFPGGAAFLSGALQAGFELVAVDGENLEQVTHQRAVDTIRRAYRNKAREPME

T9: PDZRN3_1, Q9UPQ7
T9 sequence (Q9UPQ7 244-349, limits assumed, looked up): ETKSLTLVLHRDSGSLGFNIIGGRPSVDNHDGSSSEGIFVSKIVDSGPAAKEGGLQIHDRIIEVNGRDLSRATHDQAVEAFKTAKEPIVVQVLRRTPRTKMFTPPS

T10: RHPN1, Q8TCX5
T10 sequence (Q8TCX5 508-602, limits assumed, looked up): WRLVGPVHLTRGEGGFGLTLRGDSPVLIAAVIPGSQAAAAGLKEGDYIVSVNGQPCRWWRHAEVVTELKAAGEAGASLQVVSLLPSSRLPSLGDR

T11: SHANK1, Q9Y566
T11 sequence (Q9Y566 658-767, limits assumed, looked up): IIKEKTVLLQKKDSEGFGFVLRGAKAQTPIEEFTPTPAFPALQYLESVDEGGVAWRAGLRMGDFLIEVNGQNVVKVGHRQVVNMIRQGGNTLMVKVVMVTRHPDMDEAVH

T12: TIAM2, Q8IVF5
T12 sequence (Q8IVF5 885-986, limits assumed, looked up): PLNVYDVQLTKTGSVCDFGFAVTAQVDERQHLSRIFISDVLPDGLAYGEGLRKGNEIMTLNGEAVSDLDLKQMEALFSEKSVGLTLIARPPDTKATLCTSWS


Columns and labels:
Assay in all cases: holdup assay
Parameters in all cases: key: below the threshold = too weak to quantify, mostly under pKd 3.1 to 4
Conditions in all cases: plain residues with an end cap or a label only (N-terminal biotin on a linker: ado-ado)
ARHGAP21, Q5T5U3 = target: T1, ARHGAP21, Q5T5U3
ARHGEF12, Q9NZN5-2 = target: ARHGEF12, Q9NZN5-2
DFNB31_1, Q9P202 = target: T2, DFNB31_1, Q9P202
DLG1_1, Q12959 = target: DLG1_1, Q12959
DLG3_1, Q92796 = target: T3, DLG3_1, Q92796
DLG3_3, Q92796 = target: T4, DLG3_3, Q92796
GOPC, Q9HD26 = target: GOPC, Q9HD26
HTRA2, O43464 = target: HTRA2, O43464
IL16_1, Q14005 = target: IL16_1, Q14005
LDB3, O75112 = target: LDB3, O75112
LIN7B, Q9HAP6 = target: T5, LIN7B, Q9HAP6
LNX1_1, Q8TBB1 = target: LNX1_1, Q8TBB1
MAGI2_4, Q86UL8 = target: MAGI2_4, Q86UL8
MAST1, Q9Y2H9 = target: MAST1, Q9Y2H9
MPDZ_12, O75970 = target: T6, MPDZ_12, O75970
MPP7, Q5T2T1 = target: T7, MPP7, Q5T2T1
PARD3_3, Q8TEW0 = target: PARD3_3, Q8TEW0
PDZD7_3, Q9H5P4 = target: T8, PDZD7_3, Q9H5P4
PDZRN3_1, Q9UPQ7 = target: T9, PDZRN3_1, Q9UPQ7
PTPN3, P26045 = target: PTPN3, P26045
RHPN1, Q8TCX5 = target: T10, RHPN1, Q8TCX5
SCRIB_2, Q14160 = target: SCRIB_2, Q14160
SCRIB_3, Q14160 = target: SCRIB_3, Q14160
SHANK1, Q9Y566 = target: T11, SHANK1, Q9Y566
TIAM2, Q8IVF5 = target: T12, TIAM2, Q8IVF5

LNX1_1, Q8TBB1, sequence (Q8TBB1 261-371): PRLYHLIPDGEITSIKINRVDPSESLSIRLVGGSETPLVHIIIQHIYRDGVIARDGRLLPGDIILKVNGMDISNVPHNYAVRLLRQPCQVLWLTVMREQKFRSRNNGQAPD
PARD3_3, Q8TEW0, sequence (Q8TEW0 582-685): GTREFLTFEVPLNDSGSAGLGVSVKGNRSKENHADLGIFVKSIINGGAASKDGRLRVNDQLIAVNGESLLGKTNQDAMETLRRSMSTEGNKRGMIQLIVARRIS
SCRIB_3, Q14160, sequence (Q14160 999-1103): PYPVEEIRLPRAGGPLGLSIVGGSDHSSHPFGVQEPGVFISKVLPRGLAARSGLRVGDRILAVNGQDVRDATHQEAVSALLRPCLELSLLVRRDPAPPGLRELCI
SCRIB_2, Q14160, sequence (Q14160 857-960): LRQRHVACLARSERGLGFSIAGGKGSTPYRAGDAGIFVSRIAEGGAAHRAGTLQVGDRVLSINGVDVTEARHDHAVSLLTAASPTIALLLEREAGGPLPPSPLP
PTPN3, P26045, sequence (P26045 505-587): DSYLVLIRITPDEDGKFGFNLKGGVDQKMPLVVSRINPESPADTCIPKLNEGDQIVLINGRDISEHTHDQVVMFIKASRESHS
MAGI2_4, Q86UL8, sequence (Q86UL8 772-865): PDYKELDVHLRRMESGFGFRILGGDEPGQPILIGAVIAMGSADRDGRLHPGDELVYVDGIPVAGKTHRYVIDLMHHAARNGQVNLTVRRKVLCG
HTRA2, O43464, sequence (O43464 355-458): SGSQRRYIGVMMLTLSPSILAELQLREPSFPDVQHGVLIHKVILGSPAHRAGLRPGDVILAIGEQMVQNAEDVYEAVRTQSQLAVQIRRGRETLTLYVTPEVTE
IL16_1, Q14005, sequence (Q14005 210-306): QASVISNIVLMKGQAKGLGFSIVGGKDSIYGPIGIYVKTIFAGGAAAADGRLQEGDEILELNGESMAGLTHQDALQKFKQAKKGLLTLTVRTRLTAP
ARHGEF12, Q9NZN5-2, sequence (Q9NZN5 other isoform, or with tags, fused parts or gaps): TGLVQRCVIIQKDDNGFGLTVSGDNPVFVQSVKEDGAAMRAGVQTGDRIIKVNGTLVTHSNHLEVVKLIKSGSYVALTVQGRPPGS
MAST1, Q9Y2H9, sequence (Q9Y2H9 962-1065): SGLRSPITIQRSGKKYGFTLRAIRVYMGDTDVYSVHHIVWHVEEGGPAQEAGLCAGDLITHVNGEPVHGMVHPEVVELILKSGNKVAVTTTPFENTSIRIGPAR
LDB3, O75112, sequence (O75112 1-94): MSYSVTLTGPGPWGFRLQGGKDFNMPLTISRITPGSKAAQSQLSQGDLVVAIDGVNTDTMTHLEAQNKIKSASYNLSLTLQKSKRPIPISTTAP

Binder	pKd (ARHGAP21, Q5T5U3)	pKd (ARHGEF12, Q9NZN5-2)	pKd (DFNB31_1, Q9P202)	pKd (DLG1_1, Q12959)	pKd (DLG3_1, Q92796)	pKd (DLG3_3, Q92796)	pKd (GOPC, Q9HD26)	pKd (HTRA2, O43464)	pKd (IL16_1, Q14005)	pKd (LDB3, O75112)	pKd (LIN7B, Q9HAP6)	pKd (LNX1_1, Q8TBB1)	pKd (MAGI2_4, Q86UL8)	pKd (MAST1, Q9Y2H9)	pKd (MPDZ_12, O75970)	pKd (MPP7, Q5T2T1)	pKd (PARD3_3, Q8TEW0)	pKd (PDZD7_3, Q9H5P4)	pKd (PDZRN3_1, Q9UPQ7)	pKd (PTPN3, P26045)	also measured
ASGLDKRDYV [CLDN9, O95484]	below the threshold	below the threshold	below the threshold	below the threshold	below the threshold	below the threshold	below the threshold	below the threshold	below the threshold	below the threshold	below the threshold	below the threshold	below the threshold	below the threshold	below the threshold	below the threshold	below the threshold	below the threshold	below the threshold	below the threshold	pKd (RHPN1, Q8TCX5): below the threshold; pKd (SCRIB_2, Q14160): below the threshold; pKd (SCRIB_3, Q14160): below the threshold; pKd (SHANK1, Q9Y566): below the threshold; pKd (TIAM2, Q8IVF5): below the threshold
TGLWKSETTV [ADGRA2, Q96PE1]	4.03	4.06	3.64	4.85	4.43	4.47	3.78	below the threshold	3.77	below the threshold	3.51	below the threshold	4.88	4.68	below the threshold	below the threshold	below the threshold	4.65	4.07	4.54	pKd (RHPN1, Q8TCX5): 4.33; pKd (SCRIB_2, Q14160): 4.31; pKd (SCRIB_3, Q14160): 4.4; pKd (SHANK1, Q9Y566): below the threshold; pKd (TIAM2, Q8IVF5): below the threshold

Second part, led by results:

pKd (ARHGAP21, Q5T5U3)	pKd (ARHGEF12, Q9NZN5-2)	pKd (DFNB31_1, Q9P202)	pKd (DLG1_1, Q12959)	pKd (DLG3_1, Q92796)	pKd (DLG3_3, Q92796)	pKd (GOPC, Q9HD26)	pKd (HTRA2, O43464)	pKd (IL16_1, Q14005)	pKd (LDB3, O75112)	pKd (LIN7B, Q9HAP6)	pKd (LNX1_1, Q8TBB1)	pKd (MAGI2_4, Q86UL8)	pKd (MAST1, Q9Y2H9)	pKd (MPDZ_12, O75970)	pKd (MPP7, Q5T2T1)	pKd (PARD3_3, Q8TEW0)	pKd (PDZD7_3, Q9H5P4)	pKd (PDZRN3_1, Q9UPQ7)	pKd (PTPN3, P26045)	Binder	also measured
below the threshold	4	3.72	3.5	below the threshold	3.73	3.57	below the threshold	below the threshold	below the threshold	below the threshold	below the threshold	3.5	4.76	below the threshold	below the threshold	below the threshold	4	below the threshold	4.49	NLQEHSTTSV [RSBN1, Q5VWQ0]	pKd (RHPN1, Q8TCX5): 4.04; pKd (SCRIB_2, Q14160): below the threshold; pKd (SCRIB_3, Q14160): 3.63; pKd (SHANK1, Q9Y566): 3.91; pKd (TIAM2, Q8IVF5): below the threshold
4.07	3.68	3.94	3.48	3.59	3.9	3.82	below the threshold	3.97	below the threshold	below the threshold	3.52	below the threshold	below the threshold	below the threshold	below the threshold	below the threshold	3.82	3.62	4.12	EWTDERQSKV [GAB3, Q8WWW8]	pKd (RHPN1, Q8TCX5): 4.2; pKd (SCRIB_2, Q14160): below the threshold; pKd (SCRIB_3, Q14160): below the threshold; pKd (SHANK1, Q9Y566): 3.88; pKd (TIAM2, Q8IVF5): below the threshold
below the threshold	4.18	4.39	below the threshold	below the threshold	below the threshold	below the threshold	below the threshold	below the threshold	below the threshold	3.61	below the threshold	below the threshold	4.53	below the threshold	below the threshold	below the threshold	3.97	below the threshold	3.55	FTLPAESSEI [PLEKHG7, Q6ZR37]	pKd (RHPN1, Q8TCX5): 4.68; pKd (SCRIB_2, Q14160): below the threshold; pKd (SCRIB_3, Q14160): 3.86; pKd (SHANK1, Q9Y566): 4.17; pKd (TIAM2, Q8IVF5): 4.04
4.16	3.67	below the threshold	below the threshold	below the threshold	below the threshold	below the threshold	below the threshold	below the threshold	below the threshold	below the threshold	below the threshold	below the threshold	below the threshold	below the threshold	below the threshold	below the threshold	below the threshold	below the threshold	below the threshold	HLRQQGSVEV [EPHB6, O15197]	pKd (RHPN1, Q8TCX5): below the threshold; pKd (SCRIB_2, Q14160): below the threshold; pKd (SCRIB_3, Q14160): below the threshold; pKd (SHANK1, Q9Y566): below the threshold; pKd (TIAM2, Q8IVF5): below the threshold
